We go through one molecule from patent US8445246B2, “Flavin-binding glucose dehydrogenases” (Kikkoman Corporation, priority 2009, dated 2013).

A short description of assay [1]: GDH activity measurement (PMS/DCIP, absorbance at 600 nm). Format: biochemical. The settings on record: purified enzymes / commercial GOD. Here is the method: Specifically, the activity of the flavin-binding GDH is measured in the following manner, according to the invention. A mixture of 1.79 mL of 100 mM phosphate buffer (pH 7.0), 0.08 mL of a 1.25 M D-glucose solution and 0.01 mL of a 20 mM DCIP solution is warmed at 37° C. for 5 minutes. Next, 0.02 mL of a 20 mM PMS solution and 0.1 mL of an enzyme sample solution are added, and reaction is initiated. The absorbance is measured at the start of the reaction and periodically thereafter, the reduction in absorbance at 600 nm per minute (ΔA600) as the enzyme reaction proceeds is determined, and the flavin-binding GDH activity is calculated by the following formula. […]
The value of 2.0 in the formula is the liquid volume (mL) of reaction reagent+enzyme reagent, 16.3 is the millimolar molecular absorption coefficient (cm^2/μmol) under the activity measuring conditions, 0.1 is the liquid volume (mL) of the enzyme solution, 1.0 is the optical path length (cm) of the cell, ΔA600blank is the reduction in absorbance at 600 nm per minute, when the reaction is initiated by addition of 10 mM acetate buffer instead of the enzyme sample solution, and df represents the degree of dilution.
Each solution was combined by the procedure described below, and the absorbance was measured to determine the GDH activity of the crude enzyme solution. […]

The nature of assay [2]: GOD activity measurement (4-AA/TOOS/POD, absorbance at 555 nm). The class given is biochemical. The following applies: 131 mM D-glucose, 37° C. On the procedure:
The GDH activity was measured according to the method of Example 1, and GOD activity was measured by the following method using 4-aminoantipyrine (4-AA) and N-ethyl-N-(2-hydroxy-3-sulfopropyl)-3-methylaniline (TOOS). After mixing 30.0 mL of 100 mM phosphate buffer (pH 7.0), 6.0 mL of an 833 mM D-glucose solution, 0.3 mL of a 25 mM 4-AA solution, 0.3 mL of a 40 mM TOOS solution and 0.3 mL of a 500 U/mL, POD solution, 3.0 mL of the mixture was transferred to a test tube and warmed at 37° C. for 5 minutes, after which 0.1 mL of enzyme sample solution was added and reaction was initiated. The increase in absorbance at 555 nm per minute (ΔA555) was measured as the enzyme reaction proceeded, and the GOD activity was calculated by the formula shown below. […]
The value of 3.1 in the formula is the liquid volume (mL) of reaction reagents+enzyme reagent, 32.8 is the millimolar molecular absorption coefficient (cm^2/μmol) under the activity measuring conditions, 0.5 is the number of molecules of quinoneimine dye produced when 1 molecule of H2O2 is reduced, 0.1 is the liquid volume (mL) of the enzyme solution, 1.0 is the optical path length (cm) of the cell, ΔA555blank is the increase in absorbance at 555 nm per minute, when the reaction is initiated by addition of 10 mM acetate buffer instead of the enzyme sample solution, and df represents the degree of dilution.

B1: Aspergillus niger-derived GOD: commercially available glucose oxidase derived from Aspergillus niger (GOD, product of Biozyme Laboratories) (protein, UniProt P13006 17-605, looked up)
Glucose oxidase: LPHYIRSNGIEASLLTDPKDVSGRTVDYIIAGGGLTGLTTAARLTENPNISVLVIESGSYESDRGPIIEDLNAYGDIFGSSVDHAYETVELATNNQTALIRSGNGLGGSTLVNGGTWTRPHKAQVDSWETVFGNEGWNWDNVAAYSLQAERARAPNAKQIAAGHYFNASCHGVNGTVHAGPRDTGDDYSPIVKALMSAVEDRGVPTKKDFGCGDPHGVSMFPNTLHEDQVRSDAAREWLLPNYQRPNLQVLTGQYVGKVLLSQNGTTPRAVGVEFGTHKGNTHNVYAKHEVLLAAGSAVSPTILEYSGIGMKSILEPLGIDTVVDLPVGLNLQDQTTATVRSRITSAGAGQGQAAWFATFNETFGDYSEKAHELLNTKLEQWAEEAVARGGFHNTTALLIQYENYRDWIVNHNVAYSELFLDTAGVASFDVWDLLPFTRGYVHILDKDPYLHHFAYDPQYFLNELDLLGQAAATQLARNISNSGAMQTYFAGETIPGDNLAYDADLSAWTEYIPYHFRPNYHGVGTCSMMPKEMGGVVDNAARVYGVQGLRVIDGSIPPTQMSSHVMTVFYAMALKISDAILEDYASMQ
Turning to B1, the GDH activity in assay [1] was determined as 3.50 U/mL. For the same molecule, the GOD activity in assay [2] is given as 9.38 U/mL.
